# Target: the molecule itself
# Experiment: flow cytometry FRET between anti-CD277-PE (donor) and anti-CD277-DyLight 680 (acceptor) on HEK 293 cells, medium or pamidronate (ABP)
protein,measurement,value
"CD277 (butyrophilin BTN3A1) expressed on cells (Daudi, HEK 293, EBV-LCL 48) (receptor, whole, on cells; The anti-CD277 antibodies may also see other BTN3 isoforms; also called CD277J) not shown",binding result,binds
